Data published in patent US7005415B1.

Molecular target: FGF-1a produced in E. coli (human) (UniProt P05230)
Details: scale: % band intensity remaining after 0.01% trypsin

intensity of the remaining band after trypsin treatment (SDS-denatured electrophoresis, blot): 6
Substance: trypsin (enzyme)
